Experiments:
Experiment in all cases: AP-MS
[1] = target: scribble (SCRIB), endogenous (UniProt Q14160); details: FLAG-tagged OTULIN bait expressed in HEK293 cells; endogenous prey; parent: est. 110; read off a plot
[2] = target: SLC9A3R2, endogenous (UniProt Q15599); details: FLAG-tagged OTULIN bait expressed in HEK293 cells; endogenous prey; read off a plot
[3] = target: HOIL-1-interacting protein (HOIP), endogenous (UniProt Q96EP0); details: FLAG-tagged OTULIN bait expressed in HEK293 cells; endogenous prey; parent: est. 27; read off a plot
[4] = target: SNX27, endogenous (UniProt Q96L92); details: FLAG-tagged OTULIN bait expressed in HEK293 cells; endogenous prey; parent: est. 62; read off a plot

UniProt Q15599, sequence (Q15599 whole entry): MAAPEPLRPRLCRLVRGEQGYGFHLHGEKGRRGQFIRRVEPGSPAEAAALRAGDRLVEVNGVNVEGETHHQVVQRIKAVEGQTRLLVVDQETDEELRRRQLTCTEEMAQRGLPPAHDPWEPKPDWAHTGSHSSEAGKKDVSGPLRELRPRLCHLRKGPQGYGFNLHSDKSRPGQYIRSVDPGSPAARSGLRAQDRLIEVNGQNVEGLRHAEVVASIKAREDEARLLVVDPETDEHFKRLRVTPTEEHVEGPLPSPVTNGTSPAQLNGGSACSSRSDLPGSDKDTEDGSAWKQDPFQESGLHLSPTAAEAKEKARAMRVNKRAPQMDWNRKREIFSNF
UniProt Q14160, sequence (Q14160 whole entry): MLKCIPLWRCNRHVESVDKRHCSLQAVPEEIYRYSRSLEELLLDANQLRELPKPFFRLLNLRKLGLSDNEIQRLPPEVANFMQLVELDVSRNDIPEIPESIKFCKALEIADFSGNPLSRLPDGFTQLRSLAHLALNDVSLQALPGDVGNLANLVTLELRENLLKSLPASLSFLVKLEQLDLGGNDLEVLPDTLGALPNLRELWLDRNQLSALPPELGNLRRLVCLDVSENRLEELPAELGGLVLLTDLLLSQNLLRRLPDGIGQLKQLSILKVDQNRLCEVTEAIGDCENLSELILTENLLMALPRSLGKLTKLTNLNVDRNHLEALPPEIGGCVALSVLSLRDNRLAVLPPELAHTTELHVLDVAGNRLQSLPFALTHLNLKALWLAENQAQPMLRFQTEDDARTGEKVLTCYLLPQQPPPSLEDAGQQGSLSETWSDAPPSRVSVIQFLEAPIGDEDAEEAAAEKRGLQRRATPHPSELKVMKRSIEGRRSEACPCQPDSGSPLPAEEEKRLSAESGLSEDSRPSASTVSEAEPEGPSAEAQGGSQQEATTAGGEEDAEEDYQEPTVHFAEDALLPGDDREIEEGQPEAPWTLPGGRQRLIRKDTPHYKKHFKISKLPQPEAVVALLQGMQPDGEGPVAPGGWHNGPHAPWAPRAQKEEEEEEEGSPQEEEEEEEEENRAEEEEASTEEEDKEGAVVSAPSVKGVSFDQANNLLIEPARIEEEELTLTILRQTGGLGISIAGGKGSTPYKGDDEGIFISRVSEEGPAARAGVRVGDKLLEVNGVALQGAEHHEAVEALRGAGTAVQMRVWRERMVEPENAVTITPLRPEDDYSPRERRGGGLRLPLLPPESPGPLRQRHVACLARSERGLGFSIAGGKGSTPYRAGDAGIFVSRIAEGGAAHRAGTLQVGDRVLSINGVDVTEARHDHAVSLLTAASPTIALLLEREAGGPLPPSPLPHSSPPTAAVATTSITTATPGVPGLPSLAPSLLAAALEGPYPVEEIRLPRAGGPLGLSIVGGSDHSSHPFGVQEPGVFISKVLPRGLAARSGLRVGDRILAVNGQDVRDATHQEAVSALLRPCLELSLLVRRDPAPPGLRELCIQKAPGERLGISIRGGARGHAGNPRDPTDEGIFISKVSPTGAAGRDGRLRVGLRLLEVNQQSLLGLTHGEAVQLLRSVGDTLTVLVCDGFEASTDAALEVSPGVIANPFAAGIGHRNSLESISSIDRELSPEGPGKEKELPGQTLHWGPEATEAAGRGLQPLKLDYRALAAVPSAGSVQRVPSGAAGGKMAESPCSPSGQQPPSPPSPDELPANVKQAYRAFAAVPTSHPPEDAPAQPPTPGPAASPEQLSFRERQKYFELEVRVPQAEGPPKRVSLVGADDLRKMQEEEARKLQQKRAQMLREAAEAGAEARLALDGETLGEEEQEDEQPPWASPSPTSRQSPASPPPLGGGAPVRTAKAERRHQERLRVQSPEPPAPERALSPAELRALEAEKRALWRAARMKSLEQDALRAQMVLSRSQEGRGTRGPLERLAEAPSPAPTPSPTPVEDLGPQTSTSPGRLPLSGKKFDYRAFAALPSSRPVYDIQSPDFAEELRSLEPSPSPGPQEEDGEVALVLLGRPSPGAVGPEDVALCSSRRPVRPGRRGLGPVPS
UniProt Q96EP0, sequence (Q96EP0 whole entry): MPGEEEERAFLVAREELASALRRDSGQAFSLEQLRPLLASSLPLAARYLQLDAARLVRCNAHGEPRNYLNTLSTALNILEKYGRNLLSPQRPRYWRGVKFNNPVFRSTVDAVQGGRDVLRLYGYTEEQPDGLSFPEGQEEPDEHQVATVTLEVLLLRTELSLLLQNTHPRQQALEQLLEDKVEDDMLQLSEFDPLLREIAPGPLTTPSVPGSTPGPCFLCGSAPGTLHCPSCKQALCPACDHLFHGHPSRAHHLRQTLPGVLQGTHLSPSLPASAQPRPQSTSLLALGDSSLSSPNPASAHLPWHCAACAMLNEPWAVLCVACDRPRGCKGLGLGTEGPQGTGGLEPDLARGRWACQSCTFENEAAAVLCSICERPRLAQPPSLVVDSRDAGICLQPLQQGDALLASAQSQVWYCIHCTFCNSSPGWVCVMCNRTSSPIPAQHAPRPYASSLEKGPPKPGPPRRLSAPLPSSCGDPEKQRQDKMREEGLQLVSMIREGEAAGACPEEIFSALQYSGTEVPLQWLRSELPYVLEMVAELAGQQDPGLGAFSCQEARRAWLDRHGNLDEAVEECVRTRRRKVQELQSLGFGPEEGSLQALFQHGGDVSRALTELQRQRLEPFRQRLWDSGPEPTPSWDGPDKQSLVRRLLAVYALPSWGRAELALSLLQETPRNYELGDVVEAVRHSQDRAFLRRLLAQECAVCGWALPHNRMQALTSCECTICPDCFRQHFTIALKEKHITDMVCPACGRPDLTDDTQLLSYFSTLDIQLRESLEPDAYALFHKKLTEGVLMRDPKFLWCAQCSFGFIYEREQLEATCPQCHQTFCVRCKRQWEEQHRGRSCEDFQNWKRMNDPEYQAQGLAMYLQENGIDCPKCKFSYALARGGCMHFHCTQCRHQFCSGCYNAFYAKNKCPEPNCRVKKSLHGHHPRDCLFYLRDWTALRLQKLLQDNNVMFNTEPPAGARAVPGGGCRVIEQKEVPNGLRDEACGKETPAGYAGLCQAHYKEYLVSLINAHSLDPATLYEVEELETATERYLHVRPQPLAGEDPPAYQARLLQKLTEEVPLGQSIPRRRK

- response (spectral counts) [1]: 0
- response (spectral counts) [2]: 0
- response (spectral counts) [3]: 23
- response (spectral counts) [4]: 0
Substance: FLAG-tagged full-length OTULIN (WT) (from UniProt Q96BN8) ΔPBM: C-terminal ETSL to AAAA

Source: paper PMC10445738
